From US6838262

Target: human RANK, full length, expressed in or on cells (human) (UniProt Q9Y6Q6)
Assay: cell-based or functional assay

Chain of UniProt Q9Y6Q6 (Q9Y6Q6 26-616): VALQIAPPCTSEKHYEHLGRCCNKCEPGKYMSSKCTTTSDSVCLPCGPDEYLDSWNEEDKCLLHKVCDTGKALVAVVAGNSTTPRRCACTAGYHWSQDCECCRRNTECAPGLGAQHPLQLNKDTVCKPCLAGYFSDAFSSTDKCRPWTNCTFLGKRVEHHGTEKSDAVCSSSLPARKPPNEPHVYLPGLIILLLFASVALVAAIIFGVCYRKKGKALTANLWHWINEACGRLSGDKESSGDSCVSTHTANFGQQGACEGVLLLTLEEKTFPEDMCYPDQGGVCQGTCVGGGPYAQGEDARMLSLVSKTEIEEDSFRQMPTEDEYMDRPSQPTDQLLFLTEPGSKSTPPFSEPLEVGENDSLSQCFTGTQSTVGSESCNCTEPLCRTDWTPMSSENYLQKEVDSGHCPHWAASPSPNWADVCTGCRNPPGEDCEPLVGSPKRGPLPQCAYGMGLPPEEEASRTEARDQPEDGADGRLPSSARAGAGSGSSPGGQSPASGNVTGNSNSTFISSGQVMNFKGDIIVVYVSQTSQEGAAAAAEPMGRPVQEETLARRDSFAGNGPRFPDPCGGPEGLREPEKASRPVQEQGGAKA

allo-stimulatory capacity of CD1a+ DC in a mixed lymphocyte reaction (MLR): > 10 fold
Substance: RANKL as added to human dendritic cell cultures (Example 13; species and construct not stated) (ligand)
